Results from patent CN118206654A (BEILAI PHARMACEUTICAL CO LTD, dated 2024).

T1: Biotin-IL-17A-His (human, UniProt Q16552 24-155, limits assumed, biotin (site not stated))
T1 construct: also called 人IL-17A蛋白 (biotinylated)
T1 sequence: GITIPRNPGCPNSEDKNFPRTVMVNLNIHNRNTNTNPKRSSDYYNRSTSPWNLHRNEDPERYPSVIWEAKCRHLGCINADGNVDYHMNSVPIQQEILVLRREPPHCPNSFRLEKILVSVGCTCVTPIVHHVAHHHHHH


Assays:
[1] = molecular target: IL-17RA and IL-17RC co-expressed on 293F-IL-17RA-IL-17Rc-ACT1-NFκB-Luc cells (UniProt Q96F46); assay: flow cytometry; IL17A-His on 293F-IL-17RA-IL-17Rc-ACT1-NFκB-Luc cells, APC anti-His
Biotin-IL-17A-His = molecular target: T1, Biotin-IL-17A-His; assay: ELISA; antibody coated at 2 ug/mL, Biotin-IL-17A-His titrated from 10 ug/mL (5-fold, 7 points), HRP-Streptavidin; the concentration is that of IL-17A

| 阳性率 [1] [%] | EC50 (Biotin-IL-17A-His) [µg/mL] | Molecule |
| --- | --- | --- |
| > 90 |  | Human IL-17A重组蛋白 (C-terminal 6×His) (from UniProt Q16552 24-155) (ligand) |
|  | 10.1 | 阳性对照抗体Ixekizumab (antibody, human IgG4 S228P, kappa, V domains shown, also called 阳性抗体) VH: QVQLVQSGAEVKKPGSSVKVSCKASGYSFTDYHIHWVRQAPGQGLEWMGVINPMYGTTDYNQRFKGRVTITADESTSTAYMELSSLRSEDTAVYYCARYDYFTGTGVYWGQGTLVTVSS VL: DIVMTQTPLSLSVTPGQPASISCRSSRSLVHSRGNTYLHWYLQKPGQSPQLLIYKVSNRFIGVPDRFSGSGSGTDFTLKISRVEAEDVGVYYCSQSTHLPFTFGQGTKLEIKR |
